Data as given in the DeepSol protein solubility set.

test: soluble on expression in E. coli; label from the status in PepcDB or PDB records

Which “soluble on expression in E. coli” value does the source give for “MGSDKIHHHHHHMSEETTGQLPDVLWHYTTFDTLTAILTSQCLLASDFRDTNDREEILFGFKALRDAFGTHNTWNTTEGFADPVSAAIRENEERIIEDLESSFLHGQMICLSSARDSLSMWRGYGQLTNGGGNGAVAIGFCAADLQTFCGPSDATLQSSTAHIQQNASGGFEGPSNVDYAFRNFPQLSNALSNEDYSADFHLKWTHYLAHWMKHRKHPAFAEEREYRIWGHAYDGNDKGNSQHVVFVGNHDRRKFHLAPAPDDILGPLTHPLAIQKIMVGPKTDFAKVERFTRNVFQSYTHDRPDMCASKIPFK” here?
The value was “not soluble”.

With “MALALTLREYEFSVLLLEARELPEKVDDPRPLALSYGSRLILQRLDIWKNLTQPAPITTIHISNRGHFGHAVLTPDDAGVPALGYVVNYHDLYHSMGRAIRGSNAVYQTNALVTAIRTDLSLAQVAYQQGSTTRQVRARLLVLADGGKLAEQIDGVRYHTYDYQQTAIVANVKVESPRPGTAFERFTLNGPLALLPSGEGYALVWTMPAAAAEKILKLDDRSFLLHLHEQFGDRMGEFTHVGPRSSFPLILKHASTITGHRAVLIGNAAQALHPVAGQGFNLGLRDAWELASEISRIPSGTPGEPGSTRMLAAYSRRRQSDKRISRLFTDSLVKLFTADLPLVQTCSGMGLAALDNLPPARRLIAHQMIFGTKGWFIGLEHHHHHH” as the sequence, how does the “soluble on expression in E. coli” value read?
The value was “soluble”.

Which “soluble on expression in E. coli” value does the source give for “MIAIIDYGMGNIRSVEQALKYIGAAYIVTSDKEEIFRSDGVILPGVGAFPKAMDILEEKDLVRVLQEIGRSRKPLLGICLGMQLLFEKSEELQDCNGLSLLPGVIRKLKVPYKIPHMGWNELKKEGEIALWNGVEDGSFVYYVHSYYADCPNEIVYGISDYGVKVPGFVAKGNIYGAQFHPEKSGDIGMQMLKNFKGVVETWKSSQLSI” here?
Its value is “soluble”.

Which “soluble on expression in E. coli” value does the source give for “MGSDKIHHHHHHMPDTTHATIRSARLGDVEHILAEYRQAVAELPREESANLLWRPYDEFKAAVENGLFFVIENAVGSFMAGAGVFDLPGSVEKELGMCYVKKEWRGYGLQNLLLQIRICAATLGHVPDKSGEDAATKSFAALITGVKPANEHSAANTERLGFEPLPTPPSALFNACASCRTPPARDSGRKCCCDFFYLSDARRAEAIEKSLQMENWSRTRNGHGLIVALKIRHLLDIDFRNALHDIVQELRAQEPRVPTPGKQVK” here?
The value was “not soluble”.

Which “soluble on expression in E. coli” value does the source give for “MERTFSEALKNRRTYYSITDQSPIPDQEIECIINLAVRHVPSAFNSQSTRVVLLLGKSHKKLWNIVKDALRKIVPGEAFAKTEEKIDNSFACGYGTVLFFEDQKVVKGLQEAFPSYQENFPGWSLQTSAMHQLAVWVMLEDVGFGASLQHYNPLIDDEVRRAWNLPAHWHLIAEMPFGVPVNKPGEKEFQPLEERIKVFK” here?
Its value is “not soluble”.

With “MAKYFDIDDILIEEEFVPVLFHKTANGVTIDPSAETNCVSLLIPSAKAEQGSKVELPFWLAHELHLRQAVTINLPPCFDQKTRLEVQADAAYVDLRSRCPYFYEFGCKIEPLVTDRTLGILLSTAFKIRYKEALTKVYTAAHITASKYLSFLTKEETNLYEAAHLSMTAFKKWRTGGPRFQRASILGRKRKDSN” as the sequence, how does the “soluble on expression in E. coli” value read?
The value was “soluble”.

For “MKAFDQVNHSLLLQKLHDFGINPLFCNWFHDFLSSRTFSVKVNNHIDPNIHPISSGVPKGSVSGPFLFLIFINSLLLSVPPSISCSAFADDLKVYSHSPPLIQTTIDLITTWSENNKLPLAVHKAALLNKLGFSSNCVLLLAPLINSLVCRLLAASRTGVSTVAHSKTCLLHLGKKNPKTVYKINNLPISPSNIARDLGILTDSKLTFKPHIKKIVSLALLRCKQLLKSFKSLCPEFYCNLFKTYILPLIEYGSAVYSPKPSSSLSTLLEKPLRWYSQKVLQKFNVSYSLYNDRLKSLNLHSIRHRRLKSKLILLYKFCCGTSFLRRKETFFKLSTSSRRPMRIICHNPSSNNFFSDTISFWNAITNNCDTFLSPIHFENLVDNSITRL”, which “soluble on expression in E. coli” value is on record?
The value was “not soluble”.

Which “soluble on expression in E. coli” value does the source give for “MSLVINAPFKVIASKVTAEVLKSVNSKLGSYSTNYATSSEARATNVAVATRSIDGKVVMPGETFSFNEVVGERTRARGYKEAGVIVNQKLESGFGGGVCQVSSTLYNALLRSNIKMTERVHHTFPSSYVPTGLDATVDWGNIDLKFKNTFKYPIYIQGYTGGREVGFNIYSNSELAREGHHHHHH” here?
Its value is “not soluble”.

For “MGSDKIHHHHHHMENKEVIIIGAGAAGVGMGVALKDFGINNFAILERKQVGNSFIKWPEQTRFITPSFTSNGFGMPDLNAIAIDTSPSYTLGEERLSGKDYAKYLQLVSEEYKLPIKTNCKVQSIKKEKTGYLLETTKGFIYAEYVIFAMGEFSFPNKSSIKGAYKNSLHYGEINSWIEIKGDKQTIIGGNESAIDAAIELAKLGKRVTIYTDTLGLNIRDADPSKRLAPRTRQRFFDLRVNQKKLDSIKIYTTTKVKKIEKKSTSYILITENGKSLPVENIPILCTGFKNGTKSITASLFKYKENGEVLLNDFDESTIAKNIFLTGPNVRKGNTIFCYIYKFRQRFAVIANEIARRKHITIDEKKLSYYKNQSFYLDGCSGCEVRCSC”, which “soluble on expression in E. coli” value is on record?
Its value is “not soluble”.

For “MAHHHHHHMSNELLQGAALYKELLCVYHNLAESELGLSGGDVGALFQIKENLSQPISCDIQKCKEILTKLKLVLIHLPSVDPLVPIGKKNINELLLARHILEKGVIISILDRDIKAFSIYMAQLLLYYFDYCNFLPKSGNQNGIIGMYLLYLLSSNLIGDFHMTLEVISIEDQSDEYIKYALELEQHIMDGYFHHVLTKKENIPLYLYSLFIERLYNTIRHKLADCLFASSNCISSEYACELLKLGSEQELCQFIGEYNEAKTSQGECNLLWEVRNKKIYFNNQTVHVQDLPALEVLNNTIGYATELERIV”, which “soluble on expression in E. coli” value is on record?
The value was “not soluble”.

With “MEPKRIREGYLVKKGSVFNTWKPMWVVLLEDGIEFYKKKSDNSPKGMIPLKGSTLTSPCQDFGKRMFVLKITTTKQQDHFFQAAFLEERDAWVRDIKKAIKCIEGGQKFARKSTRRSIRLPETIDLGALYLSMKDPEKGIKELNLEKDKKVFNHCLTGSGVIDWLVSNKLVRNRQEGLMISASLLSEGYLQPAGDLSKNAADGIAENPFLDSPDAFYYFPDSGFFCEENSSDDDVILREEFRGVIIKQGCLLKQGTGENWKVRKFILREDPAYLHYYDPAGGEDPLGAVHLRGCVVTSVESSHDVKKSDEENLFEIITADEVHYYLQAATSKGRTEWIKAIQVASRTGK” as the sequence, how does the “soluble on expression in E. coli” value read?
Its value is “soluble”.

With “MSLCGIAGFFSRRPVNPAVPQAMLDELHRRGPDDASRLLLDSELNPADGGAIHNAMLHARLAIVDPRPVANQPMASDDGQVWICYNGEVYDWEIGKAELEAGGAVFRTHSDTEFILRGYQAWGIEGLLERLRGMFAFAILDKRCEKVHLARDRMGEKPLLYSLQDGDFAYGSLVRAVLPFLPADKRAFSPAAIDAYLAHRYIPSPATVFSHINRLENGYRLEFDLNTRQLTKQRYWQPKAESGDWLPELDRAVAMRTVADRPLGVLLSGGIDSTVIASRLAIQQLTQFSSFTAAFPGSTLDESGDAADSARRMGLPNVRVDMPENLAADFERIVADLDQPFADPSSFPTWYLAREVTKHVKVVLVGDGGDELLAGYKRMGKHLRTRWRQNIRLPLPIKPQLDSKRGKLATELAMDWKSAYSLRFSGFTPGQRSFLQGGRKLEKLCHWRAPDDIGPEPGDGSPGLHQLLELDFANYLPDYILQKSDLCTMAHGLEGRAPLLDHGFYQRLLSTSAAERYTRPAKLIFRRAIHPALPTDFFQRKKRGFNPPLSGWLKTSLAPRFDGLGSRLAEASGGQLDAGAVDAFARAYRDGAGHLAEQMLQLLILDESLTQLRRLCRELGEGHHHHHH” as the sequence, how does the “soluble on expression in E. coli” value read?
The value was “soluble”.

Which “soluble on expression in E. coli” value does the source give for “AKTTIIAGSAEAPQGSDIQVPVKIENADKVGSINLILSYPNVLEVEDVLQGSLTQNSLFDYQVEGNQIKVGIADSNGISGDGSLFYVKFRVTGNEKAEQAENVKGKLRGLGQQLSEITLRNSHALTLQGIEIYDIDGNSVKVATINGTFRIVSQEEAHHHHHH” here?
The value was “soluble”.

For “MGSDKIHHHHHHMNTDSPLKAIQPPADEQAWAVRARRQFEAEQLLYAYVEYIDDDRLEELPELFTEDGSYQIISRENVERGLPAPTMGCSNRNMLIDRIVSLRHANIYSQHAYRHVLSNVRVKAMEGDEALVQSNYVVMATRGDGIARVYSTGKYVDRLVFEEDGPKFKQKRVIFDTQLIDTLLVRPL”, which “soluble on expression in E. coli” value is on record?
Its value is “not soluble”.

Which “soluble on expression in E. coli” value does the source give for “MGSDKIHHHHHHMPKYLVFMDIDGTLLTDHQYVSERTRATIERFQKQDVLFYIATGRMYELAKIVRDKVNADVRLVTSNGAVFDGAQGRELTKLGGAAVELAYLIARRDNLPMMLFTPDMAYYTEQIPRFVARNAANFDADEVSIGYEEVKSFTQLATIEDQITNGVILSREDMSRLDSAREKLTNSKLLRLSSSNPNNIEMIPLNTDKGTAVKQIQREQHVDAAHTFVFGDGLNDVGMMAEADLSVAMGNALPQVKKVANYVTDMNYNDGLALFLEKYFAAHPLSTTK” here?
Its value is “not soluble”.

Which “soluble on expression in E. coli” value does the source give for “MGSDKIHHHHHHMVMMSKQLTAQAPVDPIVLGKMGSSYGIRGWLRVFSSTEDAESIFDYQPWFIQKAGQWQQVQLESWKHHNQDMIIKLKGVDDRDAANLLTNCEIVVDSSQLPQLEEGDYYWKDLMGCQVVTTEGYDLGKVVDMMETGSNDVLVIKANLKDAFGIKERLVPFLDGQVIKKVDLTTRSIEVDWDPGF” here?
Its value is “not soluble”.

With “QAFVSAQTSTIPKTAFTAHDFVDYTLPQEQKGKEQKEQQWMKNSQTKDTDVHPYADFAVLEILLFPDSSTDRKIFNHFIQPAIRAYKQLGDSLNIFANQTLDQPKHNRYYLLGYPFLRNKAASLFLNQTEQRKEHMDKTTQILHEKPFVVLTDPAKPTLIRNKGANFTGNTWTSNYDL” as the sequence, how does the “soluble on expression in E. coli” value read?
The value was “not soluble”.

For “TISQRPYRDRVIHLLALKAYKKPELLARLQKDGVNQKDKNSLGAILQQVANLNSKDLSYTLKDYVFKELQRDWPGYSEIDRRSLESVLSRKLN”, which “soluble on expression in E. coli” value is on record?
Its value is “soluble”.

For “MGSDKIHHHHHHLPAHLTPIQMEPEKALLRVHCQSDIDQLLSESVVFTLLSERNLGPKMLGVFPGGRFEQFIPSRALQCLEISKPGLSKLIAPIVARVHTLDAPIPKEPQTLQTARQWLERFKKTPAGERPIEMYLTQAKVPKSDYPSTITVAQLERELNFVEFFLQHSHSPVVFSHNDLQEGNFLLIDGYKLADDGTVLTPDGKPTNDDPLSLIDFEYCSYNYRGFDLGNHFCEYGYDYNEAEAPYYKIHQHYFEVEKERKVFCEAYLDEVYKMRACGDNPHFPSDLVTGDREKDLNKIIEESILFMPVSNIFWVCWSLINAEESSIAFDYGAYGRDRLALYFHQKKNLEKYLSNL”, which “soluble on expression in E. coli” value is on record?
The value was “not soluble”.

Which “soluble on expression in E. coli” value does the source give for “MGSDKIHHHHHHMPLPQVTMQELPWKMKKSLSRSTLRSPNGFSEIGLKLEMVSQDALRRTIFPLGGLTKEFVKKIAAENRLHHVLQKKESMGMCFIGKRNFEHFLLQYLQPRPGHFISIEDNKVLGTHKGWFLYTLGQRANIGGLREPWYVVEKDSVKGDVFVAPRTDHPALYRDLLRTSRVHWIAEEPPAALVRDKMMECHFRFRHQMALVCCVLQGGRVPGQREDPAAGAVCLHAPEGPAQSWDGH” here?
The value was “not soluble”.

Which “soluble on expression in E. coli” value does the source give for “MKNYHDIVLALAGVCQSAKLVHQLATESRADSETFLTALNSLFITQPQRIEDVFGGEVRHLKLGLETLIHQLNAQGDQNLTRYWLSLLALEGKLSKNSDAKQTLGNRISRLKEQEIHYARDSETMLSIMANIYSDIISPLGKKIHILGSPDYLRQELVQNKIRAVLLAGIRSAVLWKQMGGTKWQILFFRRKLLATAKQIYSSIY” here?
The value was “not soluble”.

With “MGSDKIHHHHHHMKKAMVIINPTSGGEKALDYKEKLENKAKEYFEYVETKITEKALDATHFAEEASREQYDAVVVFGGDGTVNEVISGIDERDYIPKLGIIPGGTGNLITKLLEINQDIDGAIDELDFDLTNKIDIGKANDNYFGYIFSIGSLPEAIHNVEIEDKTKFGILTYAVNTMKSVMTDQVFNIKVETENGNYVGEASHVLVLLTNYFADKKIFEENKDGYANILILKDASIFSKLSVIPDLLKGDVVANDNIEYIKARNIKISSDSELESDVDGDKSDNLPVEIKVLAQRVEVFSKPKED” as the sequence, how does the “soluble on expression in E. coli” value read?
Its value is “not soluble”.
